Laboratory results published in the RNAGym collection of RNA variant scans (doi:10.1073/pnas.2313332121).

B1: TPR t1 (parent)
chain: GACCAAUCUGCCCUCAGAGCUCGAGAACAUCUUCGGAUGCAGAGGAGGCAGGCUUCGGUGGCGCGAUAGCGCCAACGUCCUCAACCUCCAAUGCAUCCCACCACAUGAUGAUGCCUGAAGAGCCUUGGUUUUUUG

Variants of: B1
Experiment: polymerase ribozyme fitness, log enrichment relative to wild type (log ratio); higher = more active; in vitro selection for triplet polymerase activity
Outline: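 Input and output libraries were sequenced on Illumina after a single in vitro selection round, run in triplicate on PCR-built, transcribed mutant libraries of each subunit of a heterodimeric triplet polymerase ribozyme. Selection annealed libraries to a biotinylated primer, the partner subunit and triplets, incubated them frozen at −7 °C, then gel-excised extended constructs for streptavidin-bead capture and RT-PCR. Genotypes with ≥10 input reads and ≥1 read per output were kept. Fitness is the logarithm, taken in base 2, of genotype enrichment divided by wild-type enrichment, using inverse-variance-weighted replicate averages.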

Variant | polymerase ribozyme fitness (log ratio)
GACCAAUCUGCCCUCAGAGCUCGAGAACAUCUUCGGAUGCAGAGGAGGCAGGCUUCGGUGACGCGAUAGCGCCAACGUCCUCAACCUCCAAUGCUUCCCACCACAUGAUGAUGCCUGAUCAGACUUGGUUUUUUG [G61A A95U A119U G120C C123A] | 1.22
GACCAAUCUGCCCUCAGAGCUCGAGAACAUCUUCGGAUGCAGAGGAGGCAGGCUUCGGUUGCGCGAUAGCGCCAACGUCCUCAACCUCCAAUGCAUCCCACCACAUGAUGAUGCCUGAAGAGCCUUGGUUUUUUC [G60U G135C] | 0.0909
GACCAAUCUGCCCUCAGAGCUCGAGAACAUCUUCGGAUGCAGAGGAGGCAGGCUUCGGUUGCGCGAUAGCGCCAACGUCCUCAACCUCCAAUGCAUCCCACCACAUGAUGAUGCCUGAAGAGCCUUGGUUUUUUU [G60U G135U] | -0.871
GACCAAUCUGCCCUCAGAGCUCGAGAACAUCUUCGGAUGCAGAGGAGGCAGGCUUCGGUGACGCGAUAGCGCCCACGUACUCAACCUCCAAUGCAUCCCACCACAUGAUGAUGCCUGAAGAGCCUUGGUUGUUUG [G61A A74C C79A U131G] | -1.98
GACCAAUCUGCCCUCAGAGCUCGAGAACAUCUUCGGAUGCAGAGGAGGCAGGCUUCGGUGACGCGAUAGCGCCAACGUCCUCAACCUCCAAUGCAUCCCACCACAUGAUGAUGCCUGAAGUGCCUUGGUUUUUUG [G61A A121U] | 2.32
GACCAAUCUGCCCUCAGAGCUCGAGAACAUCUUCGGAUGCAGAGGAGGCAGGCUUCGGUGACGCGAUAGCGCCUACGUCCUCAACCUCCAAUGCAUCCCACCACAUGAUUAUGCCUGGAGAGCCUUGGUUUUUUG [G61A A74U G110U A118G] | -4.67
GACCAAUCUGCCCUCAGAGCUCGAGAACAUCUUCGGAUGCAGAGGAGGCAGGCUUCGGUGACGUGAUAGCGCCAACGUCCUCAACAUCCAAUGCAUCCCACCACAUGAUGAUGCCUGAAGAGCCUUGGUUUUUUG [G61A C64U C86A] | -4.48
GACCAAUCUGCCCUCAGAGCUCGAGAACAUCUUCGGAUGCAGAGGAGGCAGGCUUCGGUUGCGCGAUAGCGCCAACGUCCUCAACCUCCAAUGCAUCCCACCACAUGAUGAUGCCCGAAGAGCCUUGGUUUUUUG [G60U U116C] | 0.0833
GACCAAUCUGCCCUCAGAGCUCGAGAACAUCUUCGGAUGCAGAGGAGGCAGGCUUCGGUUGCGCGAUAGCGCCAACGUCCUCAACCUCCAAUGCAUCCCACCACAGGAUGAUGCCUGAAGAGCCUUGGUUUUUUG [G60U U106G] | -1.17
GACCAAUCUGCCCUCAGAGCUCGAGAACAUCUUCGGAUGCAGAGGAGGCAGGCUUCGGUUGCGCGAUAGCGCCAACGUCCUCAACCUCCAACGCAUCCCACCACACAAUGACGCCUGAAGAGCCUUGGUUUUUUG [G60U U92C U106C G107A U112C] | -6.06
GACCAAUCUGCCCUCAGAGCUCGAGAACAUCUUCGGAUGCAGAGGAGGCAGGCUUCGGUGACGCGAUAGCGCCAACGUCCUCAACCUCCAAUGCAUCCCACCACAUGAUGGUGCCUGAAGAGCCUUGGUUUUUUG [G61A A111G] | 0.971
GACCAAUCUGCCCUCAGAGCUCGAGAACAUCUUCGGAUGCAGAGGAGGCAGGCUUCGGUGACGCGAUAGCGCCAACGUCCUCAACCUCCAAUGCAUCCCACCGCAUGAUGAUGCCUGAAGAGCCUUGGUUUUUUG [G61A A103G] | -2.38
GACCAAUCUGCCCUCAGAGCUCGAGAACAUCUUCGGAUGCAGAGGAGGCAGGCUUCGGUGACGCGAUAGCGCCAACGUCCUCAACCUCCAAUGCAUCCCACCUCAUGAUGAUGCCUGAAGAGCCUUGGUUUUUUG [G61A A103U] | -4.95
GACCAAUCUGCCCUCAGAGCUCGAGAACAUCUUCGGAUGCAGAGGAGGCAGGCUUCGGUGACGCGAUAGCGCCAACGUCCUCAACCUCCACUGGAUCCCACCACCUGAAGAUGCCUGACGAGCCUUGGUUUUUUG [G61A A91C C94G A105C U109A A119C] | -7.38
GACCAAUCUGCCCUCAGAGCUCGAGAACAUCUUCGGAUGCAGAGGAGGCAGGCUUCGGUGACGCGAUAGCGCCCACGUCCUCAACCUCCAAUGCAUCCCACCACAUGAUGAUGCCUGAAUAGCCUUGGUUUUUUG [G61A A74C G120U] | -2.24
GACCAAUCUGCCCUCAGAGCUCGAGAACAUCUUCGGAUGCAGAGGAGGCAGGCUUCGGUGACGCGAUAGCGCCCACGUCCUCAACCUCCAAUGCAUCCCACCACAUGAUGAUGCCUGAAGAGCCUUGGUUUUUUG [G61A A74C] | -1.86
GACCAAUCUGCCCUCAGAGCUCGAGAACAUCUUCGGAUGCAGAGGAGGCAGGCUUCGGUUGCGCGAUAGCGCCAACGUCCUCAACCUCCAAUGCAUCCCACCACAUGAUGAUGCCCGAAGAGCCUUGGUUUAUUG [G60U U116C U132A] | -0.473
GACCAAUCUGCCCUCAGAGCUCGAGAACAUCUUCGGAUGCAGAGGAGGCAGGCUUCGGUGACGCGAUAGCGCCAACGUCCUCAUCCUCCAAUGCAUCCCACCACAUGAUGAUGCCUAAAGAGCCUUGGUUUUUUG [G61A A84U G117A] | -1.64
GACCAAUCUGCCCUCAGAGCUCGAGAACAUCUUCGGAUGCAGAGGAGGCAGGCUUCGGUGACGCGAUGGCGCCAACGUCCUCAACCUCCAAUGCAUCCCACCACAUGAUGAUGCCUGAAGAGCCUUGGUUUUUUG [G61A A68G] | -2.69
GACCAAUCUGCCCUCAGAGCUCGAGAACAUCUUCGGAUGCAGAGGAGGCAGGCUUCGGUGACGCGAUAGCGCCAACGUCCUCAACCUCCACUGCAUCCCACCACAUGAUGAUGCCUGAAGAGUCUUGGUUUUUUG [G61A A91C C123U] | 0.543
GACCAAUCUGCCCUCAGAGCUCGAGAACAUCUUCGGAUGCAGAGGAGGCAGGCUUCGGUUGCGCGAUAGCGCCAACGUCCUCAACCUCCAAUGCAUCCCACCACAUGAUCAUGCCUGAAGAGCCUUGGUUUUUUG [G60U G110C] | -2.76
